# Assays:
# FVIIa (human) [1] = molecular target: FVIIa (human) (UniProt P08709)
# FVIIa (human) [2] = molecular target: FVIIa (human) (UniProt P08709); experiment: cell-based or functional assay
# FVIIa-sTF (human) [3] = molecular target: FVIIa-sTF (human) (UniProt P08709); experiment: cell-based or functional assay
# FVIIa-sTF (human) [4] = molecular target: FVIIa-sTF (human) (UniProt P08709); experiment: non-competitive inhibition kinetics of FVIIa-sTF amidolytic activity on S-2288
# FVIIa (human), sequence (P08709 61-212 limits assumed, chain 1 of 2): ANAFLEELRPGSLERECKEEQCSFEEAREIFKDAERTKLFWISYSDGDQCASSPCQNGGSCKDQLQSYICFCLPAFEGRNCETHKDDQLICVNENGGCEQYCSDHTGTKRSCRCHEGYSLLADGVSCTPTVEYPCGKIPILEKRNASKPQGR
# FVIIa (human), sequence (P08709 213-466 limits assumed, chain 2 of 2): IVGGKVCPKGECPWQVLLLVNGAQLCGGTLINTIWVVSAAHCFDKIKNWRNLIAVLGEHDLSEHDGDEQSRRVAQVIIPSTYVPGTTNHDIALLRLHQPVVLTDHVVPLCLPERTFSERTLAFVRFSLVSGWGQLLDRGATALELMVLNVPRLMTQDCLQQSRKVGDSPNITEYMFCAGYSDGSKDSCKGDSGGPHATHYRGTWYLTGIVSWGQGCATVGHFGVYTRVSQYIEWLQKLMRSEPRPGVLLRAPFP
# FVIIa-sTF (human), sequence (P08709 61-212 limits assumed, chain 1 of 3): as the sequence (P08709 61-212 limits assumed, chain 1 of 2) above
# FVIIa-sTF (human), sequence (P13726 33-251 limits assumed, chain 2 of 3, further chain): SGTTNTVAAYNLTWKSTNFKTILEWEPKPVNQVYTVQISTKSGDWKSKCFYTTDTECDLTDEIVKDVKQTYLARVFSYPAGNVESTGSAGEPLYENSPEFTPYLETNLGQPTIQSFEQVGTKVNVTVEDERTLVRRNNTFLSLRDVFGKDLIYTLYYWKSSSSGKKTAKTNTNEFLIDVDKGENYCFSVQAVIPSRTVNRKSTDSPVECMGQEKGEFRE
# FVIIa-sTF (human), sequence (P08709 213-466 limits assumed, chain 3 of 3): as the sequence (P08709 213-466 limits assumed, chain 2 of 2) above
binder,measurement,setting,value
hemextin AB complex (protein) chain 1: LKCKNKLVPFLSKTCPEGKNLCYKMTMLKMPKIPIKRGCTDACPKSSLLVKVVCCNKDKCN chain 2: LKCKNKVVPFLKCKNKVVPFLCYKMTLKKVPKIPIKRGCTDACPKSSLLVNVMCCKTDKCN,Ka,FVIIa (human) [1],411000 M⁻¹
same,ΔG,FVIIa (human) [1],-7.54
same,ΔH,FVIIa (human) [1],-7.93
same,ΔS,FVIIa (human) [1],-1.25 cal/M
same,"IC50, inhibition of FVIIa amidolytic activity in the absence of sTF",FVIIa (human) [2],105 nM
same,inhibitory potency towards FVIIa relative to plasma kallikrein,FVIIa (human) [2],> 50 times
same,"IC50, inhibition of FVIIa amidolytic activity in the presence of sTF",FVIIa-sTF (human) [3],100 nM
same,Ki,FVIIa-sTF (human) [4],25 nM

# Reference: patent publication US20090180995A1, “NOVEL ANTICOAGULANT POLYPEPTIDES AND COMPLEX” (National University of Singapore, priority 2005, published 2009)
